Consider 14 molecules from patent publication US20070243589A1 (Pfizer, published 2007).

Numbering of substitutions follows the chain as printed.

Sequences and labels used below:
B1: 355B06 scFv (non-germlined) (scFv)
scFv: EVQLVQSGAEVKKPGASVKVSCQASGYTFTDYYMHWVRQAPGQGLEWVGWINPYTGSAFYAQKFRGRATMTRNTSINTAYMELSRLGSDDTAVYYCAREPEKFGESSGQLWGRGTMVTISSGGGGSGGGGSGGSGSAQAVLTQPSSVSGAPGQRVTISCTGSSSNIGPGYGVHWYQQLPGTAPKLLIYGDSNRPSGVPDRFSGSKSGTSASLAITGLQAEDEADYYCQSYDSGLSGYVFGTGTQLTVLSA
notes: Optimized clone derived from GIL92
B2: 368D04 scFv (non-germlined) (scFv)
scFv: EVQLVESGGGVVRPGGSLRLSCAASGFTFDDYGMNWVRQAPGKGLEWVSGVNWNGGTRDYAASVKGRFTISRDNAKNSLYLQMNSLRAEDTALYYCARGWYSGAAWNMGYWGRGTLVTVSSGGGGSGGGGSGGSGGGSGGGGGGSGGGGSAQAVLTQPSSVSGSPGQSITISCTGASGDVGAYNFVSWYQQHPGKTPKLIIYDVNKRPSGVSNRFSGSKSGNTASLTISGLQAEDESDYYCASLVSDFSVVFGGGTKVTVLGAAAH
notes: Optimized clone derived from GIL60
B3: 354A08 scFv (non-germlined) (scFv)
scFv: QVQLVQSGAEKKPGASVKVSCKASGYTFTDYYMHWVRQAPGQGLEWVGWINPYTGGAFYAQKFRGRVTMTRDTSINTAYMELSRLGSDDTAVYYCAREPERFGDSTGQVWGRGTMVTVSSGGGGSGGGGSGGSRSAQAVLTQPSSVSGAPRQRVTISCTGSSSNIGAGYGVHWYQQLPGTAPKLLIYGNSNRPSGVPDRFSGSKSGTSASLAITGLQAEDEADYYCYHWDKEQSGYVFGTGTQLTVLSA
notes: as for B1
B4: 376B10 scFv (non-germlined) (scFv)
scFv: EVQLVQSGAEVKKPGASVKVSCQASGYTFSDYYIHWVRQTPGQGFEWMGWVNPDTGGTRYAQKFQGWVTMTRDMSNTTAYMELPGLRDDDTAVYYCARDLTGYDQYTAWGQGTLVTVSSGGGGSGGGGSGGGGSAQSVLTQPPSVSVAPGKTATITCGGNNFRNKRVHWYQQRPGQAPVLVIYYDSDRPSGIPERFSGSRSGNTATLTISRVEAGDEADFYCSTFDPFTDRPLFGGGTKLTVLGAAAH
notes: Optimized clone derived from GIL68
B5: 367D04 scFv (non-germlined) (scFv)
scFv: EVQLVESGGGVVRPGGSLRLSCAASGFTFDDYGMNWVRQAPGKGLEWVSGVNWNGGTRDYAASVKGRFTISRDNAKNSLYLQMNSLRAEDTALYYCARGWYSGSPWSLGHWGRGTLVTVSSGGGGSGGGGSGGSGGGSGGSGGGSSGGGSGGGGSAQAVLTQPSSVSGSPGQSVTISCTGASGDVGAYNFVSWYQQHPGKTPKLIIYDVNKRPSGVSNRFSGSKSGNTASLTISRLQAEDESDYYCSSYTSRYTTEFGGGTKVTVLGAAAH
notes: as for B2
B6: 087B03 scFv (non-germlined) (scFv)
scFv: EVQLVESGGGVVRPGGSLRLSCAASGFTFDDYGMNWVRQAPGKGLEWVSGVNWNGGTRDYAASVKGRFTISRDNAKNSLYLQMNSLRAEDTALYYCARGWYSGAAWNMGYWGRGTLVTVSSGGGGSGGGGSGGGGSAQAVLTQPSSVSGSPGQSITISCTGASGDVGAYNFVSWYQQHPGKTPKLIIYDVNKRPSGVSNRFSGSKSSNTASLTISGLQAEDESDYYCSSYTSTFSVVFGGGTKVTVLGAAAH
notes: as for B2
B7: 355E04 scFv (non-germlined) (scFv)
scFv: QVQLVQSGAEVKKPGASVKVSCKASGYTFTHYYMHWVRQAPGQGLEWVGWINPYTGGAFYAQKFQGRVTMTRDTSINTAYMELSRLGSDDTAVYYCAREPEKFDSPNAEIWGRGTMVTISSEGGGSGGGGSGGSGSAQAVLTQPSSVSGAPGQRVTISCTGSSSNIGAGYGVHWYQQLPGTAPKLLIYGNSNRPSGVPDRFSGSKSGTSASLAITGLQAEDEADYYCQSYDSSLSGYVFGTGTQLTVLSA
notes: as for B1
B8: 097D09 scFv (non-germlined) (scFv)
scFv: EVQLVESGGGLVTPGGSLRLSCAASGFTFSDYYMSWVRQAPGRGLEWVSAISGSGGSTYYADSVKGRITISRDNAKNSLYLQMSSLRSEDTAVYYCARGLWVWDPLDYWGRGTLVTVSSGGGGSGGGGSGGGGSDIQMTQSPSTLSASIGDRVTITCRASEGIYHWLAWYQQKPGKAPKLLIYKASSLASGAPSRFSGSGFGTDFTLTISSLQPDDFATYYCQQYSEFAWTFGGGTKLEIKRAAAH
notes: Optimized clone derived from GIL01
B9: 166G05 scFv (non-germlined) (scFv)
scFv: EVQLVQSGAEVKKPGASVKVSCQASGYTFSDYYIHWVRQTPGQGFEWMGWVNPDTGGTRYAQKFQGWVTMTRDMSNTTAYMELPRLRDDDTAVYYCARDLTGFDPFDIWGQGTLVTVSSGGGGSGGGGSGGGGSAQSVLTQPPSVSVAPGKTATITCGGNNFRNKRVHWYQQRPGQAPVLVIYYDSDRPSGIPERFSGSRSGNTATLTISRVEAGDEADFYCQVWDFLTDSGSFGGGTKLTVLGAAAH
notes: as for B4
B10: 356A11 scFv (non-germlined) (scFv)
scFv: QVQLVQSGAEVKKPGASVKVSCKASGYTFTNYYMHWVRQAPGQGLEWVGWINPYTGSAFYAQKFRGRVTMTRDTSINTAYMELSRLGSDDTAVYYCAREPEKFDSDDSDVWGRGTMVTVSGGGGSSGGGGSGGSGSAQAVLTPPSVSGAPGQRVTISCTGSSSNIGAGYGVHWYQQLPGTAPKLIIYGDSSRPSGVPDRFSGSKSGTSASLAITGLQAEDEADYYCQSYDNSLSGYVFGTGTQLTVLSA
notes: as for B1
B11: 062G05 IgG (non-germlined) (antibody, V domains shown)
VH: QVQLVESGAEVKKPGASVKVSCKASGYTFTSYGISWVRQAPGQGLEWMGWISAYTGNTNYAQKFQGRVTMTTDTSTSTAYMELRSLRSDDTAVYYCARDRGYYDAFDIWGQGTLVTVSS
VL: DIQMTQSPSTLSASIGDRVTITCRASEGIYHWLAWYQQKPGKAPKLLIYKASSLASGAPSRFSGSGFGTDFTLTISSLQPDDFATYYCQQMGEWKAAFGGGTKLEIKR
notes: IgG
B12: 375G06 scFv (non-germlined) (scFv)
scFv: EVQLVQSGAEVKKPGASVKVSCQASGYTFSDYYIHWVRQTPGQGFEWMGWVNPDTGGTRYAQKFQGWVTMTRDMSNTTAYMELPRLRDDDTAVYYCARDLTGYDYYDRWGQGTLVTVSSGGGGSGGGGSGGGGGGSGGGGGGSGGGGSAQSVLTQPPSMSVAPGKTATITCGGNNFRNKRVHWYQQRPGQAPVLVIYYDSDRPSGIPERFSGSRSGNTATLTISRVEAGDEADFYCQVWDFLADEAMFGGGTKLTVLGAAAH
notes: as for B4
B13: 062G05 scFv (non-germlined) (scFv)
scFv: QVQLVESGAEVKKPGASVKVSCKASGYTFTSYGISWVRQAPGQGLEWMGWISAYTGNTNYAQKFQGRVTMTTDTSTSTAYMELRSLRSDDTAVYYCARDRGYYDAFDIWGQGTLVTVSSGGGGSGGGGSGGGGSDIQMTQSPSTLSASIGDRVTITCRASEGIYHWLAWYQQKPGKAPKLLIYKASSLASGAPSRFSGSGFGTDFTLTISSLQPDDFATYYCQQMGEWKAAFGGGTKLEIKRAAAH
notes: Optimized clone derived from GIL16
B14: 062A09 scFv (non-germlined) (scFv)
scFv: B13 scFv with I51V, S85G, F106Y, W228Y, K229N, A231T, F232I
notes: as for B13

The target of one test is T1, human IL-22 (human, UniProt Q9GZX6 34-179).
T1 sequence: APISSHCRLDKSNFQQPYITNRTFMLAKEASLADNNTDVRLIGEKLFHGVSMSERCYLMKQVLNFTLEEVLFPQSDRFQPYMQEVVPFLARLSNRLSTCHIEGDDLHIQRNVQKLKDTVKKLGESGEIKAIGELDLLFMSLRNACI
The test is described as follows: cell-based or functional assay.
In the case of B1, the “IC50 of scFv in BaF3-IL-22 proliferation assay” value (“IC50 of scFv” below) turned out to be 0.183 nM.
As to B2, the “IC50 of scFv” value was found to be 0.186 nM.
On the same count and under the same terms, with B3 the figure was 0.219 nM; with B4, 0.104 nM.
Consider B5, for which the “IC50 of scFv” value came out at 0.16 nM.
Regarding B6, the “IC50 of scFv” value turned out to be 0.212 nM.
As for B7, the “IC50 of scFv” value came to 0.192 nM.
Take B8: the “IC50 of scFv” value was 0.298 nM.
For B9, the “IC50 of scFv” value came to 0.204 nM.
Same read-out and setting: with B10 the figure was 0.124 nM.
For B11, the “IC50 of IgG in BaF3-IL-22 proliferation assay” value amounted to 0.112 nM.
For the molecule B12, the “IC50 of scFv” value came out at 0.118 nM.
On the same count and under the same terms, with B13 the figure was 0.182 nM; with B14, 0.267 nM.

For the next test, the target named is T2, BSA (bovine, UniProt P02769).
T2 construct: background wells labelled BSA; also called bovine serum albumin
T2 sequence (P02769 25-607 limits assumed): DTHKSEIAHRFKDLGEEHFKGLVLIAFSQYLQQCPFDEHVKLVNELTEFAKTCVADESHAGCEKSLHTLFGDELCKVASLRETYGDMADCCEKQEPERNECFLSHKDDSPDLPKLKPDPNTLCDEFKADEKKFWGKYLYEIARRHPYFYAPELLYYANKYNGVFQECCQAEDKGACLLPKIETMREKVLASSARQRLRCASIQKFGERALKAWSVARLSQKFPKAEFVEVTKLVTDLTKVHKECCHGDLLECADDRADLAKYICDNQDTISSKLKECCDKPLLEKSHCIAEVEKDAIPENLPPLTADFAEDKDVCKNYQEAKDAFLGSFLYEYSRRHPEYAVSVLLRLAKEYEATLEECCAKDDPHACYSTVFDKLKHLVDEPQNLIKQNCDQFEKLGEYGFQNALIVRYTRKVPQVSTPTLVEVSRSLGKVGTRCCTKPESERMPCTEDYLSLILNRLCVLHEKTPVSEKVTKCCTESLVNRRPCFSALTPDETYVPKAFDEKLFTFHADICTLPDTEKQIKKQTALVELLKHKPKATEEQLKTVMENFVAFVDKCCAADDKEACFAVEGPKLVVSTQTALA
Nature of the test: ELISA: wells labelled BSA, IgG at 1 µg/ml, HRP anti-human IgG, A450. The method, then: Cross species reactivity of germlined and non-germlined optimized antibodies were determined as follows: ELISA plates (Costar, Cat. #3590) were coated overnight with 1 μg/ml of rat, mouse, or human IL-22 or human IL-26 in PBS buffer. Plates were washed with PBST buffer (0.05% Tween20 in PBS) 3 times, then blocked with 1% BSA (Sigma A8918)/PBST for 1 hr at RT. Antibodies were added at 1 μg/ml, incubated 1 hr at 25° C. […] The plates were incubated for 1 hour at 25° C., then washed with PBST, and developed with TMB (KPL, Cat. #50-76-04). Reaction was stopped with 0.18 M H₂S0₄. Plates were read at OD 450 nm.
Background: An ELISA detects its analyte on a solid surface through an enzyme-linked reagent.
B11: the binding result is listed as “no binding (tested: 1 µg/ml (single concentration))”.

The next test addresses T3, biotinylated IL-22 with an N-terminal His/FLAG tag (bio.IL-22H/F) (human, UniProt Q9GZX6 34-179, biotinylated (site not stated)).
T3 construct: not shown: N-terminal His/FLAG tag
T3 sequence: T1 sequence
The test is described as follows: DELFIA competition assay: scFv titrated against bio.IL-22H/F binding to the captured IL-22 receptor complex. The procedure: Microtiter plates were coated with an IL-22 receptor complex antibody (1 μg/ml in PBS), and incubated for 1.5 hours at room temperature. Plates were washed three times in PBST, and blocked for 1 hour at room temperature with 2% MPBS. After a further 3 washes, diluted cell conditioned medium containing an IL-22 receptor complex was added and incubated overnight at 4° C. Crude scFv supernatants were prepared as described above. The following day, 25 μl of diluted scFv sample and 25 μl of bio.IL-22H/F (6 ng/ml) were added to the washed plates, and incubated for 1.5 hours at room temperature. Plates were washed 3 times in PBST, then binding of bio.IL-22H/F to the IL-22 receptor complex was detected with Europium-Streptavidin and the DELFIA® reagent kit (PerkinElmer). Time Resolved Fluorescence was measured using a Victor 2™ Plate Reader (Perkin Elmer).
Purified scFv from positive clones identified from the screening were tested in the DELFIA® IL-22 receptor complex competition assay as described above. A titration of scFv concentrations was used in order to establish the clone potency as measured by IC₅₀ values in the assay. Fourteen optimized clones were designated 097D09, 062A09, 062G05, 087B03, 367D04, 368D04, 166B06, 166G05, 375G06, 376B10, 354A08, 355B06, 355E04, and 356A11.
Usually IC50 stands for the concentration at which inhibition is half-maximal. Read a low IC50 as greater potency in that assay. B1 registered an IC50 of 0.18 nM.
Same read-out and setting: with B2 the figure was 0.32 nM.
Consider B3, for which the IC50 is 0.16 nM.
As for B4, the IC50 is 0.79 nM.
On the same count and under the same terms, with B5 the figure was 0.33 nM.
In the case of B6, the IC50 amounted to 0.12 nM.
Still for that read-out and setting: with B7 the figure was 0.41 nM.
Take B8: the IC50 came out at 0.39 nM.
With B9, the IC50 worked out at 0.19 nM.
B10 came in with an IC50 of 0.55 nM.
The same measure, in the same setting: with B12 the figure was 0.44 nM.
B13 yielded an IC50 of 0.1 nM.
On the same count and under the same terms, with B14 the figure was 0.13 nM.
